Source: publication doi:10.1101/2024.05.17.594632 (bioRxiv, 2024)

Biological target: the molecule itself
Experiment: cryo-EM structure

B1: full-length phytochrome from Pseudomonas aeruginosa (PaBphP) (enzyme)
chain: MTSITPVTLANCEDEPIHVPGAIQPHGALVTLRADGMVLAASENIQALLGFVASPGSYLTQEQVGPEVLRMLEEGLTGNGPWSNSVETRIGEHLFDVIGHSYKEVFYLEFEIRTADTLSITSFTLNAQRIIAQVQLHNDTASLLSNVTDELRRMTGYDRVMAYRFRHDDSGEVVAESRREDLESYLGQRYPASDIPAQARRLYIQNPIRLIADVAYTPMRVFPALNPETNESFDLSYSVLRSVSPIHCEYLTNMGVRASMSISIVVGGKLWGLFSCHHMSPKLIPYPVRMSFQIFSQVCSAIVERLEQGRIAELLRVSTERRLALARRARDADDLFGALAHPDDGIAALIPCDGALVMLGGRTLSIRGDFERQAGNVLQRLQRDPERDIYHTDNWPQPSEDSPDGGDCCGVLAIRFHRQESGWIFWFRHEEVHRIRWGGKPEKLLTIGPSGPRLTPRGSFEAWEEVVRGHSTPWSETDLAIAEKLRLDLMELCLNHAAEVDRMRQRLIAVLGHDLRNPLQSISMAAALLSSSDTRTTELRQHISASSSRMERLVSQILDMSRLQSGIGLTVNPVDTDVSQLVRQIVCETDVAYPGLVIEIAIDPQVRAVVDPDRYAQVAANLLSNARHHGLPGRPVLVTLTRQGDEVCLSVLNETSGLSEAQLANLFEPFKRESADNQRNRNGLGIGLYISQAIAQAHQGRIDVDCRDDVITFCLRLPVRQAETGSSS
modifications: biliverdin chromophore (15Z in Pr, 15E in Pfr)
- stoichiometry N: 2
